{"source": "patent US8207309B2", "about": "“Human synthetic single-chain antibodies directed against the common epitope of mutant P53 and their uses” (Ramot at Tel-Aviv University Ltd., priority 2005, dated 2012)", "molecules": {"B1": {"name": "A6 scFv: human scFv, SEQ ID NO:115; VL CDRs SEQ ID NOs:60-62 (protein)", "scFv": "VQLLESGGGLVQPGGSPRLSCAASGFTFSGYWMHWVRQAPGKGLEWVSEISGSGDSTHYGDSVKGRFTISRDNSKNTLYLQMNSLRAEDTAVYYCARGRNGSLDYWGQGTLVTVSSGSAGGGGSGGGGSGGGGSDIVLTQPPSASGTPGQRVTISCTGGRFNIGDYAVNWYQQLPGKAPKLLIYDNDRRPSGVSDRFSGSKSGTSASLAISGLRSEDEADYYCAAWDDSLDGLVFGGGTQLTV", "modifications": "Single chain Fv"}, "B2": {"name": "A4 scFv: human scFv clone; VL CDRs SEQ ID NOs:36-38 (protein)", "scFv": "VQLLESGGGLVQPGGSLRLSCAASGFTFSGYWMHWVRQAPGKGLEWVSEISGSGDSTHYGDSVKGRFTISRDNSKNTLYLQMNSLRAEDTAVYYCARGRNGSLDYWGQGTLVTVSSGSAGGGGSGGGGSGGGGSDIVLTQPPSASGTPGQRVTISCTGNSSNIGAGYDVHWYQQLPGKAPKLLIYSNNQRPSGVPDRFSGSKSGTSASLAISGLRSEDEADYYCAAWDDSLSSVVFGGGTKLTV"}, "B3": {"name": "B6 scFv: human scFv clone; VL CDRs SEQ ID NOs:27-29 (protein)", "scFv": "B2 scFv with N159S, S161A, S186D, N188D, Q189K, S230R, S233G, L242V"}}, "key": {"[1]": {"target": "T1, common epitope of mutant p53 (FRHSVV; SEQ ID NO:1) (Homo sapiens, UniProt P04637)", "T1 construct": "A biotin conjugate of the peptide (FRHSVV)", "assay": "BIAcore analysis of scFv binding to immobilized FRHSVV-biotin peptide", "settings": "FRHSVV-biotin on streptavidin chip, 1:1 Langmuir model, read-out: affinity (binding constant) towards the common epitope (SEQ ID NO:1)", "procedure": "Binding was determined using the BIACore at the indicated concentrations of antibodies. RU=resonance units. The binding constant was determined using the software that is supplied with the BIAcore instrument (wwwdotBiacoredotcom).\nBIAcore Analysis—Real time analysis of the interaction between scFvs and FHRSVV-biotin were determined using BIAcore technology (Biacore AB, Uppsala, Sweden) according to manufacturer's instructions. The peptide FRHSVV-biotin was immobilized on a streptavidin coated sensor chip surface SA. The amount of immobilized peptide was 200 pg/mm^2, the binding was in HBS buffer (10 mM Hepes PH 7.4, 150 mM NaCl, 0.005% Tween-20, 3.4 mM EDTA). Several concentrations of purified scFv (62 nM, 125 nM, 250 nM, 1 μM and 2 μM) were injected at a flow rate of 20 μl/minute. […] Regeneration of the sensor chip was performed using 10 μl of 10 mM HCl. The kinetics parameters of the binding reactions were determined by BIAevaluation 4.0 Software (Biacore AB) using the 1:1 Langmuir model. The dissociation rate (off-rate) constant Kd and the association rate constant (on-rate) Ka were determined simultaneously according to manufacturer's instructions.\nThe scFv F2 and E6 antibodies display high affinity binding of the mutant epitope—To determine the affinity binding of the isolated scFvs towards the target peptide (SEQ ID NO:1), the BIAcore technology was employed. […]"}, "[2]": {"tested_on": "BSA, Streptavidin, amyloid peptide (SEQ ID NO:2), MAP-PrP, PaP", "settings": "ELISA, FIG. 9, SEQ ID NOs:2-4"}, "[3]": {"target": "T2, FRHSVV peptide (SEQ ID NO:1; common epitope of mutant p53) (Homo sapiens, UniProt P04637)", "T2 construct": "A biotin conjugate of the peptide (FRHSVV)", "assay": "Binding specificity ELISA of scFvs (FIG. 9)"}}, "note": "Residue numbers refer to the chain shown, from its start. Entries after “also recorded” stand apart in the source; their conditions may differ. Like-named read-outs stand apart in the source and are kept apart here."}
{"molecule": "B1", "values": [{"measurement": "Kd", "setting": "[1]", "result": 23, "unit": "nM"}]}
{"molecule": "B2", "values": [{"measurement": "binding to the other peptides or proteins tested", "setting": "[2]", "result": "low affinity"}, {"measurement": "binding to peptide of the common epitope of mutant p53 (SEQ ID NO:1)", "setting": "[3]", "result": "high affinity"}, {"measurement": "binding to peptide of the common epitope of mutant p53 (SEQ ID NO:1)", "setting": "[3]; listed as A4", "result": "highly specific; also recorded: high binding specificity"}]}
{"molecule": "B3", "values": [{"measurement": "binding to the other peptides or proteins tested", "setting": "[2]", "result": "low affinity"}]}
